In publication PMC9638944, “ATM-mediated ELL phosphorylation enhances its self-association through increased EAF1 interaction and inhibits global transcription during genotoxic stress” (Nucleic Acids Research, 2022):

Assays:
EAF1 = EAF1 (UniProt Q96JC9); assay: IP of tagged ELL, EAF1 blot; conditions: reference: wild type ELL; sites T551,S561,S589
[1] = target: the molecule itself; assay: co-sedimentation; glycerol gradient of purified recombinant His-GFP-ELL
GST-ELL = target: T1, GST-ELL (human, UniProt P55199 1-621); assay: pull-down; GST or GST-ELL bound to glutathione beads incubated with purified prey in 20 mM Tris-Cl pH 8, 20% glycerol, 2 mM EDTA, 150 mM KCl, BSA 20 ng/μl, 0.1% NP-40, 10–12 h, 4°C; immunoblot; some panels with purified EAF1 added; conditions: both partners purified
T1 construct: ELL (aka ELL1), human; Cloned in pET-GST
T1 sequence (looked up): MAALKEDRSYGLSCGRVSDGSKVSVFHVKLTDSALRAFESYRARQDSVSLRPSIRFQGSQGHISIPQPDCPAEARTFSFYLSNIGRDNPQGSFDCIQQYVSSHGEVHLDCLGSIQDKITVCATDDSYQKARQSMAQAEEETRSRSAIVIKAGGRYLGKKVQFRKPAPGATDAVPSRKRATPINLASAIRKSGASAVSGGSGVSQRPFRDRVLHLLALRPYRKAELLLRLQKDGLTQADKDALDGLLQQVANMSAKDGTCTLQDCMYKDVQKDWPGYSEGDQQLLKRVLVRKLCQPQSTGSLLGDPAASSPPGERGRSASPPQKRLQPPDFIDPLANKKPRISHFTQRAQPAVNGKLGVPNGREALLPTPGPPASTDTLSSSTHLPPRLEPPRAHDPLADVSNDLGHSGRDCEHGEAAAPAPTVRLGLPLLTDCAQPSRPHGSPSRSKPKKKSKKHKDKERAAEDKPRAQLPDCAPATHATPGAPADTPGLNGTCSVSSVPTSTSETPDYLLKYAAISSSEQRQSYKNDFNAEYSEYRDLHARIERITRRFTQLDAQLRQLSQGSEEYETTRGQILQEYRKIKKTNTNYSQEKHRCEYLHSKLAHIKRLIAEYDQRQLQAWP

ELL (aka ELL1) (from UniProt P55199) ELL TM (T551A, S561A, S589A)
binding against the reference (EAF1): weaker

B1: His-GFP-ELL (natural protein, human, UniProt P55199 1-621, looked up)
chain: MAALKEDRSYGLSCGRVSDGSKVSVFHVKLTDSALRAFESYRARQDSVSLRPSIRFQGSQGHISIPQPDCPAEARTFSFYLSNIGRDNPQGSFDCIQQYVSSHGEVHLDCLGSIQDKITVCATDDSYQKARQSMAQAEEETRSRSAIVIKAGGRYLGKKVQFRKPAPGATDAVPSRKRATPINLASAIRKSGASAVSGGSGVSQRPFRDRVLHLLALRPYRKAELLLRLQKDGLTQADKDALDGLLQQVANMSAKDGTCTLQDCMYKDVQKDWPGYSEGDQQLLKRVLVRKLCQPQSTGSLLGDPAASSPPGERGRSASPPQKRLQPPDFIDPLANKKPRISHFTQRAQPAVNGKLGVPNGREALLPTPGPPASTDTLSSSTHLPPRLEPPRAHDPLADVSNDLGHSGRDCEHGEAAAPAPTVRLGLPLLTDCAQPSRPHGSPSRSKPKKKSKKHKDKERAAEDKPRAQLPDCAPATHATPGAPADTPGLNGTCSVSSVPTSTSETPDYLLKYAAISSSEQRQSYKNDFNAEYSEYRDLHARIERITRRFTQLDAQLRQLSQGSEEYETTRGQILQEYRKIKKTNTNYSQEKHRCEYLHSKLAHIKRLIAEYDQRQLQAWP
notes: ELL (aka ELL1), human; Cloned in pET-11d; also called GFP-ELL (in vitro); purified recombinant ELL protein; source: E. coli BL21(DE3), purified (Ni-NTA)
binding result [1]: binds | binding result (GST-ELL): binds
